In patent US7517654B2, “Peptide and a derivative thereof promoting cell adhesion and spreading” (Seoul National University Industry Foundation, priority 2004, dated 2009):
“Also recorded” adds a separate entry of the source.

B1: rLG3: recombinant His6-tagged LG3 domain, residues 1128-1364 of human laminin α3 chain (protein, listed as Homo sapiens)
chain: VRLNDTVGVTKKCSEDWKLVRSASFSRGGQLSFTDLGLPPTDHLQASFGFQTFQPSGILLDHQTWTRNLQVTLEDGYIELSTSDSGGPIFKSPQTYMDGLLHYVSVISDNSGLRLLIDDQLLRNSKRLKHISSSRQSLRLGGSNFEGCISNVFVQRLSLSPEVLDLTSNSLKRDVSLGGCSLNKPPFLMLLKGSTRFNKTKTFRINQLLQDTPVASPRSVKVWQDACSPLPKTQANH
modifications: His6 tag
notes: recombinant His6-tagged LG3 domain, residues 1128-1364 of human laminin α3 chain

Key:
integrin α3β1 = biological target: T1, integrin α3β1 (Homo sapiens, UniProt P05556+P26006); experiment: Adhesion activity inhibition assay with function-blocking anti-integrin mAbs or EDTA; format: cell-based; settings: 25 μg/ml rLG3 or 10 μg/well peptide P4 coating; for inhibition of cell adhesion activity by anti-integrin β1 antibody: 5 μg/ml mAb (6S6) preincubation 30 min; for inhibition of cell adhesion activity by anti-integrin α3 antibody: 5 μg/ml mAb (P1B5) preincubation 30 min; for effect of EDTA on cell adhesion: 5 mM EDTA preincubation 30 min
T1 construct: it is confirmed that the HOK-16B cells expressed several integrins, including α3β1, α6β1, and α6β4; endogenous in cells; host or cells: HOK-16B (HPV-16-immortalized human oral keratinocytes)
T1 sequence (P26006 33-872 limits assumed): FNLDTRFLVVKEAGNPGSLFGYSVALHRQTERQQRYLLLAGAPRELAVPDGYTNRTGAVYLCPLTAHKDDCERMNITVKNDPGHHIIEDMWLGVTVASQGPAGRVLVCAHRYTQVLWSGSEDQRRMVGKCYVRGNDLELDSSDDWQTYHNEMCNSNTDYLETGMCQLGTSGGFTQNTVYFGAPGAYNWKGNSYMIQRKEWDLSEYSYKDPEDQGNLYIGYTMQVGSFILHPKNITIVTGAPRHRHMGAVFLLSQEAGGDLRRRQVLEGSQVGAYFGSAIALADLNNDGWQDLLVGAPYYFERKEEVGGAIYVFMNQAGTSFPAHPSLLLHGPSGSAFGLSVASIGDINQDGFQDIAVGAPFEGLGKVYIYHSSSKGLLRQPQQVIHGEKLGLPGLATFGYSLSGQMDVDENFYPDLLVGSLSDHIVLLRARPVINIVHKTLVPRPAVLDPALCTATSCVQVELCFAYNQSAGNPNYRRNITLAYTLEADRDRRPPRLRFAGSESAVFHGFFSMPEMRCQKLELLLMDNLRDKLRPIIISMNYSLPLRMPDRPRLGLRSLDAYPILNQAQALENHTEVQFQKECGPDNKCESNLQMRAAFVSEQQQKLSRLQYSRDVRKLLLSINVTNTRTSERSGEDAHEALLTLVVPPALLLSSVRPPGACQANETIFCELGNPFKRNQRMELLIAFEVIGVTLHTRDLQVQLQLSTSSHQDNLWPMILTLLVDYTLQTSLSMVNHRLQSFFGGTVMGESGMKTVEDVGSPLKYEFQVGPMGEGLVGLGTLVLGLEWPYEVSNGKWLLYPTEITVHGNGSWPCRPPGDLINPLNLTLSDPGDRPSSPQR
T1 sequence (P26006 873-1051 limits assumed): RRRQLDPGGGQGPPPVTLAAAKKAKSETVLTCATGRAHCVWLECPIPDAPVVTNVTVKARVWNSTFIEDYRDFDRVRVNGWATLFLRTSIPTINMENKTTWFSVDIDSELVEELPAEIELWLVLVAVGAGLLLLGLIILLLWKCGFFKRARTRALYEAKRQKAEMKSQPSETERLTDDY
T1 sequence (P05556 21-798): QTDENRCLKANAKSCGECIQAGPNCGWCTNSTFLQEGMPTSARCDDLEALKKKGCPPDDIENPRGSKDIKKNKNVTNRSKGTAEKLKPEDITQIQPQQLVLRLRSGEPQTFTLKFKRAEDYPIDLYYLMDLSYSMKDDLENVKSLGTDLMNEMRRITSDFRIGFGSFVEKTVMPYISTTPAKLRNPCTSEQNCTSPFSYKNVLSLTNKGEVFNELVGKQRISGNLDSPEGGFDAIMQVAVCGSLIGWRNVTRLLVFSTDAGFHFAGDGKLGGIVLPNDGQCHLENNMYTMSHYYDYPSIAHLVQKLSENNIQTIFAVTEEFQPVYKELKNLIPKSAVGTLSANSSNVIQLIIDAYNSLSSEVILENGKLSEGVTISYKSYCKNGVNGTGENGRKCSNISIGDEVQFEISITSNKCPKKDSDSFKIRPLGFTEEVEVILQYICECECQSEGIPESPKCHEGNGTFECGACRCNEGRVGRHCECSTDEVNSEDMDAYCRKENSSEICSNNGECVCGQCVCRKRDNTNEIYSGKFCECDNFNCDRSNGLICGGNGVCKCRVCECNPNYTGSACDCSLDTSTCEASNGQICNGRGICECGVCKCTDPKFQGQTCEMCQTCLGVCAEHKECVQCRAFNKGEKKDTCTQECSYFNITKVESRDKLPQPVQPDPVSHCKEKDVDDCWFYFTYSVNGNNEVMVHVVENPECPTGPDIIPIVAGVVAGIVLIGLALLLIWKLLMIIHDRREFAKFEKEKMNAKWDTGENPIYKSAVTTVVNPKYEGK
Experimental: To identify the receptor of the HOK-16B cells for rLG3 protein and peptide P4, 5 μg/ml of mAbs to different types of integrins or 5 mM EDTA were preincubated individually with HOK-16B cells in 0.5 ml incubation solution (2×10^5 cells/ml) for 30 min at 37° C. The preincubated cells were then transferred onto plates precoated with either 25 μg/ml of rLG3 protein or 10 μg/well of peptide P4 and incubated for 1 h at 37° C. Attached cells were then quantified by the cell adhesion assay described above in the Experimental Example 2, and cell adhesion activity inhibition rate were measured.
Meanwhile, the ligand-integrin interaction were known to require a divalent cation. To determine the role of cations in the interaction, the present inventors examined the effect of metal-chelating reagent, EDTA, on HOK-16B cell adhesion to the rLG3- and peptide P4-coated plates. HOK-16B cells were preincubated with 5 mM EDTA or 5 μg/ml function-blocking mAbs (Chemicon Temecula, CA) against integrin α3 (P1B5), β1 (6S6), α6 (NK I-GoH3) subunits for 30 min at 37° C. and plated on 25 μg/ml rLG3-precoated plate, and then cultured for 1 hr. After the unbound cells were washed off, the adherent cells were fixed to stain with crystal violet, and the stained cells were analyzed. The average adhesion activity of control cultures (HOK-16B cells preincubated without EDTA or integrin antibodies) were considered 100%.

FAK = FAK phosphorylation assay (immunoblot, p-FAK/t-FAK); format: cell-based, human; settings: 15 min
Experimental: The FAK phosphorylation assays were performed according to a method of Shang et al. (J. Biol. Chem., 276:33045, 2001). In detail, the HOK-16B cells were trypsinized, washed, and kept in suspension in serum-free KGM with 0.1% BSA for 1 h at 37° C. The 60-mm culture dishes were coated with laminin (5 μg/ml) or rLG3 protein (25 μg/ml) at 4° C. overnight. Peptides (50 μg/60-mm culture dish) were also coated on dishes by drying overnight. For the adherent FAK assay, 1×10^6 cells were plated onto uncoated, laminin-coated, rLG3 protein-coated, or various peptide-coated dishes and allowed to attach for 15, 30, or 60 min at 37° C. in an atmosphere of 5% CO2. At the end of the incubation, cells were washed with ice-cold PBS and lysed in RIPA buffer (50 mM Tris [pH 7.4], 150 mM NaCl, 1% Nonidet P-40, 0.5% Na-deoxycholate, 1 mM EDTA, 0.1% SDS, 2 mM Na3VO4, 1 mM glycerol phosphate, 1 mM PMSF, and protease inhibitor cocktail). Lysates were clarified by centrifugation at 12,000×g for 10 min at 4° C. to isolate cytosolic extracts.
The cytosolic extracts were denatured using SDS sample buffer [50 mM Tris-HCl (pH 6.8), 2% SDS, 10% glycerol, 0.1% bromophenol blue, 100 mM β-mercaptoethanol] and separated on an 8% SDS-polyacrylamide gel. Electrophoretic transfer of SDS-PAGE gel separated with protein to a nitrocellulose membrane was followed by immnoblotting with polyclonal anti-FAK antibodies to determine the total FAK level or immnoblotting with polyclonal anti-FAK [pY^397], [pY^407], [pY^576], [pY^577] or [pY^861] antibodies to determine the extent of tyrosine phosphorylation. The relative fold induction of FAK phosphorylation, defined as an increase in FAK phosphorylation of a sample relative to its corresponding background level (i.e., cells plated on plastic) was determined as follows: First, the densitomerty intensity of the phosphorylated FAK (p-FAK) and the total FAK (t-FAK) signals from the Western blots were measured with a LAS-1000plus (Fuji photo film, Japan). The ratio of p-FAK to t-FAK (p-FAK/t-FAK) for each sample was then calculated to correct for differences in protein loading. This ratio was normalized to the p-FAK/t-FAK ratio of the negative controls to obtain the relative fold induction of FAK phosphorylation.
HOK-16B cells isolated by trypsinization were suspended for 1 hr, and kept in suspension (Sus), or replated on 60-mm culture dishes coated with or without laminin (5 μg/ml). The cells were kept for 15, 30, or 60 min for being attached on plates, then cell lysates were analyzed by immunoblot analysis with anti-FAK p-Y397 antibody (Biosource, Camariollo, Calif.). […] This effect was observed within 15 min and peaked at 15 min after exposure to the laminin-coated plate (FIG. 8A).
Therefore, the extent of FAK phosphorylation at Tyr-397,-407,-576, -577, and -861 was investigated in HOK-16B cells cultured on plates coated with laminin (5 μg/ml), rLG3 (25 μg/ml), or peptides P1-P5 (50 μg/60-mm dish) for 15 min. The lysates were immnoblotted with polyclonal anti-FAK, p-Y397, p-Y407, p-Y576, p-Y577 or p-Y861 antibodies (Biosoucce, Camariollo, Calif.), and the total FAK level was detected using anti-FAK antibodies (Upstate Biotechnology, Lake Placid, N.Y. The ratio of p-FAK to t-FAK (p-FAK/t-FAK) for each sample was then calculated to correct for differences in protein loading. This ratio was normalized to the p-FAK/t-FAK ratio of the negative controls (cells on plates) to obtain the relative fold induction of FAK phosphorylation. As a result, the extent of FAK phosphorylation at Tyr-397 cultured on the laminin-coated or rLG3 protein-coated plates increased 16.2- and 8.2-fold compared with the untreated control (FIG. 8B).

| Molecule | inhibition of cell adhesion activity by anti-integrin β1 antibody (integrin α3β1) | inhibition of cell adhesion activity by anti-integrin α3 antibody (integrin α3β1) | effect of EDTA on cell adhesion (integrin α3β1) | FAK phosphorylation level at Tyr-577 (FAK; HOK-16B cells on coated dishes, peptides 50 μg/60-mm dish) | changes of the FAK phosphorylation levels at Tyr-407, -576 and -861 (FAK; HOK-16B cells on coated dishes) | increase of FAK phosphorylation at Tyr-397 compared with the untreated control (FAK; HOK-16B cells, laminin 5 μg/ml or rLG3 25 μg/ml coating, p-FAK/t-FAK normalized) |
| --- | --- | --- | --- | --- | --- | --- |
| PPFLMLLKGSTR [peptide P4] | 54% | 49% | decrease in cell adhesion | higher than that in the cells spread on the other peptides; also recorded: lower than that on laminin | – | – |
| B1 | 71% | 71% | almost completely inhibited | – | not observed | 8.2 fold |
